In publication PMC9348755 (Science (New York, N.y.), 2022):

B1: C13C9 mAb (antibody, V domains shown)
VH: EVQLVQSGPEVKKPGTSARVSCKASGFTSKNTALQWVRQARGQPLEWMGWIDISNYITNYAQKFRGRLTITWDLSASMAYMELSSLRSEDTAVYYCAAVGKDDDVLTGGNKYFDHWGQGTLVTVSS
VL: SYELTQPPSVSVSPGQTARITCSGDALPKKYAYWYQQKSGQAPVLVIHEDDKRPSGIPGRFSASSSGTTATLTISGAQVEDEADYYCYSTDTNDNHAFGSGTKLTVL
notes: also called Group 3 mAb; fusion peptide-specific mAb
B2: VN01H1 mAb (antibody, V domains shown)
VH: EVQLVESGGGLVLPGGSLRLSCSASGFTFSDFSMHWVRQSPGKGLEYVSAITSSGSSTYYPDSVKGRFTISRDNSKNTLYLQMGSLRVEDTAVYWCVKNSDVFRFPHLYFDVWGRGTLVTVSS
VL: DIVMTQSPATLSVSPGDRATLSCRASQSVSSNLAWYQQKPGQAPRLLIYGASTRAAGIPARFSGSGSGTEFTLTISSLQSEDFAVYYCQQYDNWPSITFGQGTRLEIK
notes: as for B1
B3: VP12E7 mAb (antibody, V domains shown)
VH: QVQLVQSGGGVVQPGESLRLSCSGSGFTFNNYIMHWVRQAPGQGLDYVSGIGSDGRNTNYGDSVKGRFTISRDNSKDTLYLQMTSLRAEDTAFYYCVKGLDVLRFLDLSTPSGERLDAFDIWGQGTMVTVSS
VL: DIVMTQSPSFLSASVGDRVTITCRASQGISNYLAWYQQKPGKAPHLLIYAASTLQSGVPSRFSGSGSGTEFTLTISSLQPEDFATYYCQQLNSYPLFTFGPGTKVDIE
notes: as for B1
B4: C13B8 mAb (antibody, V domains shown)
VH: QVQLQESGPGLVQPSQTLTLTCTVSGDSISNEDYHWTWIRQHPGKGLEWMGYLQYSGNTNYNPSLKSRMTISVDTSKNQFSLRLNSVTAADTAVYFCATSIVLTGMSNKIQPFDYWGQGTLVTVSS
VL: SYELTQPPSVSVSPGQMARITCSGEALPKKYAYWYQQKGGQFPVLVIYKDTERPSGIPERFSGSSSGTIVTLTISGVQPEDEADYYCLSADTSGTWVFGGGTKLTVL
notes: as for B1
B5: C77G12 mAb (antibody, V domains shown)
VH: EVQLVESGGGVVQPGRSLRISCAVSGFTFGSYAMHWVRQAPGKGLEWVGVMSSDGHNEYYADSVKGRFTISRDNSRNKLYLEMNNLRVDDTAVFYCARGSDYVDDSPPLHYWGQGTLVTVSS
VL: DIQLTQSPSSLSASIGDRVTITCRASQDIANKLAWFQQAPGKAPKSLIYAASRLQSGVPSQFSGSGSGTDFTLTIESLQAGDFATYFCQQYDSFPFTFGPGTKVDVK
notes: as for B1
B6: C13B8 Fab (Fab, V domains shown)
VH: B4 VH
VL: B4 VL
B7: C13C9 Fab (Fab, V domains shown)
VH: B1 VH
VL: B1 VL
B8: C77G12 Fab (Fab, V domains shown)
VH: B5 VH
VL: B5 VL
B9: VN01H1 Fab (Fab, V domains shown)
VH: B2 VH
VL: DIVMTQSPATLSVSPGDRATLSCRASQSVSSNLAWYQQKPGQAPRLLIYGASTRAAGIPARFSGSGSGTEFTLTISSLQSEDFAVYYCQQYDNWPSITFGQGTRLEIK
B10: VP12E7 Fab (Fab, V domains shown)
VH: B3 VH
VL: B3 VL

Molecular target: T1, SARS-CoV-2 S fusion peptide K811[…]825 (SARS-CoV-2)
T1 construct: source: synthetic peptide
T1 chain: KPSKRSFIEDLLFNK
Assay: ELISA
Settings: both partners purified

Binder	binding result
B1	binds
B2	binds
B3	binds
B4	binds
B5	binds

What follows are binders tested against T2, full length SARS-CoV-2 S Wuhan-Hu-1 on HEK293T cells (Severe acute respiratory syndrome …, UniProt P0DTC2) (assay: flow cytometry on cells). Settings: one partner purified.
T2 construct: source: HEK293T, transiently transfected, on the cell surface

Binder	binding result
B1	binds
B2	binds
B3	binds
B4	binds
B5	binds

The binders below were run against T3, SARS-CoV S on HEK293T cells (Severe acute respiratory syndrome …, UniProt P59594) (assay: flow cytometry on cells). Settings: one partner purified.
T3 construct: source: HEK293T, transfected, on the cell surface

Binder	binding result
B1	binds
B2	binds
B3	binds
B4	binds
B5	binds

What follows are binders tested against T4, MERS-CoV S on HEK293T cells (MERS-CoV, strain ; entry is …, UniProt K9N5Q8) (assay: flow cytometry on cells). Settings: one partner purified.
T4 construct: source: HEK293T, transfected, on the cell surface

Binder	binding result
B1	binds
B2	binds
B3	binds
B4	binds
B5	binds

These binders were tested against NL63 S on HEK293T cells (Human coronavirus NL63, GenBank …, UniProt A0A1L2YVI8) (assay: flow cytometry on cells). Settings: one partner purified.
Chain of NL63 S on HEK293T cells (Q6Q1S2 19-1356): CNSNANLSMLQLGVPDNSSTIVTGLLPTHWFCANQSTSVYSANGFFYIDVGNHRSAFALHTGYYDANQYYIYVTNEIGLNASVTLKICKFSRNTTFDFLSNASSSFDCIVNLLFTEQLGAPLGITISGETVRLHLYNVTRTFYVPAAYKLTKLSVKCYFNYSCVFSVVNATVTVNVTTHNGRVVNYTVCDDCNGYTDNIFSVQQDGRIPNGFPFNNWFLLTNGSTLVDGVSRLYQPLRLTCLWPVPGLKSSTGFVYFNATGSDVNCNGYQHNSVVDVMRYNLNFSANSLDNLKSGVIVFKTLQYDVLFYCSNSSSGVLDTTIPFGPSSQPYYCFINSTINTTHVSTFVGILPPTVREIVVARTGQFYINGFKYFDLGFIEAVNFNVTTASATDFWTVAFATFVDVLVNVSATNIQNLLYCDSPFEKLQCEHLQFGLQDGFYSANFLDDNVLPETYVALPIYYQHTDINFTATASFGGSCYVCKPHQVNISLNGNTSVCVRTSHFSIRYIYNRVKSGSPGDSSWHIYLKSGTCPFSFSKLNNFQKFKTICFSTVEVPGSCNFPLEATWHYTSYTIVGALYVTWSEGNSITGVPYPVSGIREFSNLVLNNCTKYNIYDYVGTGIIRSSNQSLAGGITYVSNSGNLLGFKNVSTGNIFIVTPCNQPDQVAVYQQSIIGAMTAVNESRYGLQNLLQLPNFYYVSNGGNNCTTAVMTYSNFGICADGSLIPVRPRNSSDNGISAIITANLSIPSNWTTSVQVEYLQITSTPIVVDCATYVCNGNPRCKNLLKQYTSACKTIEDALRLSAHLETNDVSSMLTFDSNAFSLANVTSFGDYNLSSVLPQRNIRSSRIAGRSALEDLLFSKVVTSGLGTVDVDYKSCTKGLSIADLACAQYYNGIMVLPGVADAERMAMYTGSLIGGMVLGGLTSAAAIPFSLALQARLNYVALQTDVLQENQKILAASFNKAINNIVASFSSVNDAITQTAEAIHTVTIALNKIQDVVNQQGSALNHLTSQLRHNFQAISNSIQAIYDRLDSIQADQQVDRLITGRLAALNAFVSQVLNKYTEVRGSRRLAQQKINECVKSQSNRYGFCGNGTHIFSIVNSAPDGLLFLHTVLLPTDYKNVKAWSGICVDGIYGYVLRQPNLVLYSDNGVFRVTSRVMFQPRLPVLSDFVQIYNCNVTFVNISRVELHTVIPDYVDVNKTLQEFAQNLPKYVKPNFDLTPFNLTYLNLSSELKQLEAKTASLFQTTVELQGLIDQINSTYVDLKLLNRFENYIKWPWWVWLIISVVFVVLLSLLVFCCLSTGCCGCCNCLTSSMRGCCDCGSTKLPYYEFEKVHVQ

Binder	binding result
B1	binds
B2	binds
B3	binds
B4	binds
B5	binds

These binders were tested against T5, 229E S on HEK293T cells (Human coronavirus 229E, GenBank …) (assay: flow cytometry on cells). Settings: one partner purified.
T5 construct: source: HEK293T, transiently transfected, on the cell surface
T5 sequence (P15423 16-1173): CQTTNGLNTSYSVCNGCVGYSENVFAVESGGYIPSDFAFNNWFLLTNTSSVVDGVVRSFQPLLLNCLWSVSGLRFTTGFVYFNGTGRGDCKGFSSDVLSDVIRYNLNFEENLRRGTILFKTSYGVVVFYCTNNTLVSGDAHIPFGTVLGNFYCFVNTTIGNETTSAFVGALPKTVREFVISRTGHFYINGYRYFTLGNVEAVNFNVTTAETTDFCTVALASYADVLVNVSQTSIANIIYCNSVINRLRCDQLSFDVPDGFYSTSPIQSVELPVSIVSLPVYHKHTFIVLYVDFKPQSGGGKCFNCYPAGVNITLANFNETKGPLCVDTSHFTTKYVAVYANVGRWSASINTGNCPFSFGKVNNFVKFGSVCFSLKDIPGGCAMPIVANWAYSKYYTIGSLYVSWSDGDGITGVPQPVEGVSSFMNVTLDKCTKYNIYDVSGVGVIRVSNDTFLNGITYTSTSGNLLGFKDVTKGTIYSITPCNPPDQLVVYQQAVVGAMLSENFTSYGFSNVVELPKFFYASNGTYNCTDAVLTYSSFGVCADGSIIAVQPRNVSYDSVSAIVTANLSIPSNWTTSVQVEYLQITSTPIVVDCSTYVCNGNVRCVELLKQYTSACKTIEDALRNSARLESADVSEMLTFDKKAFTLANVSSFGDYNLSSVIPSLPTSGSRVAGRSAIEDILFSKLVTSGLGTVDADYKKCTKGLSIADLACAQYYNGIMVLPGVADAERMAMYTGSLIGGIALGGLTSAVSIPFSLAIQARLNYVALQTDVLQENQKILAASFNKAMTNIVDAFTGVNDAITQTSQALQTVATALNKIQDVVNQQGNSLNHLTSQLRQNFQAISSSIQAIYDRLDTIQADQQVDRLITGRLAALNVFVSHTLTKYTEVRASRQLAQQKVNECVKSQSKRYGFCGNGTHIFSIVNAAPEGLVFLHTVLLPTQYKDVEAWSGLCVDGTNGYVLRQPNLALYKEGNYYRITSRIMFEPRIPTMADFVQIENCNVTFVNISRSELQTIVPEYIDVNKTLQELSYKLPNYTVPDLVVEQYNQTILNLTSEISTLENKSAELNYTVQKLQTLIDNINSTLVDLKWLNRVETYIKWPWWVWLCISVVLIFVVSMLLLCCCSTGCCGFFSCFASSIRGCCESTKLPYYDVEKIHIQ

Binder	binding result
B1	binds
B2	binds
B3	binds
B4	binds
B5	binds

Molecular target: T1, SARS-CoV-2 S fusion peptide K811[…]825
Assay: crystal structure; Fab in complex with the fusion peptide K811-K825
Settings: both partners purified

Binder	binding result
B6	binds
B7	binds
B8	binds
B9	binds
B10	binds

These binders were tested against SARS-CoV-2 S protein (commercially available, recombinant) (SARS-CoV-2 (Wuhan-Hu-1 assumed), UniProt P0DTC2) (assay: ELISA; mAbs titrated on commercially available hCoV S proteins; EC50 (Fig. 1E)). Settings: both partners purified.

Binder	binding result
B1	binds
B2	binds
B3	binds
B4	binds
B5	binds

The binders below were run against OC43 S protein (commercially available, recombinant) (human coronavirus OC43, strain not …, UniProt P36334) in the same assay as above. Settings: both partners purified.

Binder	binding result
B1	binds
B2	binds
B3	binds
B4	binds
B5	binds

These binders were tested against HKU1 S protein (commercially available, recombinant) (human coronavirus HKU1, isolate not …, UniProt Q5MQD0) in the same assay as above. Settings: both partners purified.
Chain of HKU1 S protein (commercially available, recombinant) (Q5MQD0 13-1356): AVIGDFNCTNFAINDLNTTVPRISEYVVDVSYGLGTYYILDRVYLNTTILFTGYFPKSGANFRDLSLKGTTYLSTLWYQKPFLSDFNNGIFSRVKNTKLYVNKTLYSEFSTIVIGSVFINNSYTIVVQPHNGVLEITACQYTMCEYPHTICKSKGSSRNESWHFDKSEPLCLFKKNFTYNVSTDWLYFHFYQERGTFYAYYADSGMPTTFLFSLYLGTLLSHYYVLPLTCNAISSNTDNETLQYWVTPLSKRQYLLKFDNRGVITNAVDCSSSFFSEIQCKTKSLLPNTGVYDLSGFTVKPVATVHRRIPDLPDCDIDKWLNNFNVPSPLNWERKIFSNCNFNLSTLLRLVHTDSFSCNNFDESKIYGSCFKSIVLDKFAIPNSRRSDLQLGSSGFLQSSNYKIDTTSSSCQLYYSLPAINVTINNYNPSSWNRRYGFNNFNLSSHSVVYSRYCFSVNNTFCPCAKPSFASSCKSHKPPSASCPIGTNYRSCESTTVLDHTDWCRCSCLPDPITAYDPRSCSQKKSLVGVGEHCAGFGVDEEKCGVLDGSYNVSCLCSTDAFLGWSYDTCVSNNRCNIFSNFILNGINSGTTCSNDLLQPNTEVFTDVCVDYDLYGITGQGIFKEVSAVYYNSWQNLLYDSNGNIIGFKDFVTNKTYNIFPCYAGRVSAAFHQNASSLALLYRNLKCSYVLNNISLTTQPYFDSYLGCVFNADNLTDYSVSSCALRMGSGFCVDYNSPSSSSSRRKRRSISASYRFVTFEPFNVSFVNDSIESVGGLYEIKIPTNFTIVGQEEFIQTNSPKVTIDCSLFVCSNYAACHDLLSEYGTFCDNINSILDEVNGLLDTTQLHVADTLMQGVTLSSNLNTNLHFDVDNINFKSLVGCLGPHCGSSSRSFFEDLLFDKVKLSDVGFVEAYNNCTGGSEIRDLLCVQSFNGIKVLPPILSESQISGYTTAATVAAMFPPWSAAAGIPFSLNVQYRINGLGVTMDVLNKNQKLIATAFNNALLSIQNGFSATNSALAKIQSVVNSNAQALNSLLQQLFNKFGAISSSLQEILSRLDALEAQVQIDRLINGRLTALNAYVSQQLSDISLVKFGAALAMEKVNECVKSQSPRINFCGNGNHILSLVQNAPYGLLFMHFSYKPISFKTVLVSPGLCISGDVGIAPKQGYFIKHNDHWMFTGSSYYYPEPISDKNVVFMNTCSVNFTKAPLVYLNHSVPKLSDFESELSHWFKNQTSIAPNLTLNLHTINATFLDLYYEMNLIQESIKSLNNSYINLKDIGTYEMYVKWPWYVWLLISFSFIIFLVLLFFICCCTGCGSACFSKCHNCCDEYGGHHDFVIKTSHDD

Binder	binding result
B1	binds
B2	binds
B3	binds
B4	binds
B5	binds

These binders were tested against NL63 S protein (commercially available, recombinant) (human coronavirus NL63, strain of …, UniProt A0A1L2YVI8) in the same assay as above. Settings: both partners purified.

Binder	binding result
B1	binds
B2	binds
B3	binds
B4	binds
B5	binds

Molecular target: T6, 229E S protein (commercially available, recombinant) (human coronavirus 229E, strain of …)
T6 chain: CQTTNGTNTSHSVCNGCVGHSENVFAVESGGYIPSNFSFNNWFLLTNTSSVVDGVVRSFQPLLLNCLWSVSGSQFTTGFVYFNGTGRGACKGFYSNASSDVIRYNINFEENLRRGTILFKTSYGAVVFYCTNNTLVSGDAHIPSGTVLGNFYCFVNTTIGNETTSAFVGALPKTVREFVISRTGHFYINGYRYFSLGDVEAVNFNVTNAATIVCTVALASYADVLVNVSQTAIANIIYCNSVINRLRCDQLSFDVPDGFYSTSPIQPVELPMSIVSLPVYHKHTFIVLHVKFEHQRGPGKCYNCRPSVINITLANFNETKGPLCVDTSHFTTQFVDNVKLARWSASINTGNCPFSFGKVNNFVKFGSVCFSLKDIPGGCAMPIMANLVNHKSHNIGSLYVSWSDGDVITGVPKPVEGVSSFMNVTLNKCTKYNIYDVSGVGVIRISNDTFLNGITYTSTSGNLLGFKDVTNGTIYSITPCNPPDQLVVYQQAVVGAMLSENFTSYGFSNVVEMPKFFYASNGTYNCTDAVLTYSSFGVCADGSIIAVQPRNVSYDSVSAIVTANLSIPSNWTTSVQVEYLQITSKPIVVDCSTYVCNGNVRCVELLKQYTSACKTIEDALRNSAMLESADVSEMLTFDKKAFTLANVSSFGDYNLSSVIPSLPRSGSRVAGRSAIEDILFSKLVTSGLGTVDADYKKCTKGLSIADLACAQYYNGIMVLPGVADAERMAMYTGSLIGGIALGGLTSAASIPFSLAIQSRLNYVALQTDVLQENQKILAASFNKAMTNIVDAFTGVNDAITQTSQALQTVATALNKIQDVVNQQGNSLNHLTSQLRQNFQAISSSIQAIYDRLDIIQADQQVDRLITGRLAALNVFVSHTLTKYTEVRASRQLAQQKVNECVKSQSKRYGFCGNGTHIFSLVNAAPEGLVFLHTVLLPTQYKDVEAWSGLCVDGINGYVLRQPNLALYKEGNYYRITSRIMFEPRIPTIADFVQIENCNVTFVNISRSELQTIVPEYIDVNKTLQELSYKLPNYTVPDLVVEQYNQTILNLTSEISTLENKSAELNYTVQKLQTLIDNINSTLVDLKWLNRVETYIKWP
Assay: as above
Settings: both partners purified

Binder	binding result
B1	binds
B2	binds
B3	binds
B4	binds
B5	binds
